The data set concerns the molecule itself. Kind of data set: SEC. For orientation: In gel filtration, larger molecules generally elute earlier.

B1: A3A H29R (enzyme)
chain: not shown
What is called stoichiometry N is the number of molecules, sites or subunits per partner or assembly. Regarding B1, the “stoichiometry N” value is 2.
